Target: the molecule itself
Assay: SEC; Ni2+ column eluate concentrated and run on Superdex 200 10/300 GL in Buffer C (1x PBS, 0.02% FC14); fractions tested by SDS-PAGE and Western blot; monomer, dimer and higher oligomer resolved

B1: Trx-hCCR3 (human chemokine receptor CCR3 with N-terminal HP-thioredoxin, expressed from pBAD-hCCR3) (receptor, UniProt P51677 1-355, looked up)
chain: MTTSLDTVETFGTTSYYDDVGLLCEKADTRALMAQFVPPLYSLVFTVGLLGNVVVVMILIKYRRLRIMTNIYLLNLAISDLLFLVTLPFWIHYVRGHNWVFGHGMCKLLSGFYHTGLYSEIFFIILLTIDRYLAIVHAVFALRARTVTFGVITSIVTWGLAVLAALPEFIFYETEELFEETLCSALYPEDTVYSWRHFHTLRMTIFCLVLPLLVMAICYTGIIKTLLRCPSKKKYKAIRLIFVIMAVFFIFWTPYNVAILLSSYQSILFGNDCERSKHLDLVMLVTEVIAYSHCCMNPVIYAFVGERFRKYLRHFFHRHLLMHLGRYIPFLPSEKLERTSSVSPSTAEPELSIVF
notes: synthetic full-length gene of 1,065 bp; not shown: HP-thioredoxin (E. coli thioredoxin with E32H and Q64H), N-terminal, kept; His6, C-terminal, kept
binding result: binds

B2: Trx-hCX3CR1 (human chemokine receptor CX3CR1 with N-terminal HP-thioredoxin, expressed from pBAD-hCX3CR1) (receptor, UniProt P49238 1-355, looked up)
chain: MDQFPESVTENFEYDDLAEACYIGDIVVFGTVFLSIFYSVIFAIGLVGNLLVVFALTNSKKPKSVTDIYLLNLALSDLLFVATLPFWTHYLINEKGLHNAMCKFTTAFFFIGFFGSIFFITVISIDRYLAIVLAANSMNNRTVQHGVTISLGVWAAAILVAAPQFMFTKQKENECLGDYPEVLQEIWPVLRNVETNFLGFLLPLLIMSYCYFRIIQTLFSCKNHKKAKAIKLILLVVIVFFLFWTPYNVMIFLETLKLYDFFPSCDMRKDLRLALSVTETVAFSHCCLNPLIYAFAGEKFRRYLYHLYGKCLAVLCGRSVHVDFSSSESQRSRHGSVLSSNFTYHTSDGDALLLL
notes: as for B1
binding result: binds

Reference: publication PMC2637981, “High-Level Production, Solubilization and Purification of Synthetic Human GPCR Chemokine Receptors CCR5, CCR3, CXCR4 and CX3CR1” (PLoS ONE, 2009)
